The values that follow come from publication PMC4503318 (Chemistry & biology, 2015).

Where two headings read alike, the source gives them in different places.

Series [1] deals with the molecule itself. Kind of series: crystal structure.
Series [2] deals with the molecule itself. Kind of series: crystal structure. This is another data set of the same source.

B1: Pf-like human LysRS (human LysRS 70-584 with P300T, Q321V, T337S) (enzyme)
chain: not shown
On to B1, for which the binding result in series [1] is recorded as “binds”.

B2: Plasmodium falciparum lysyl-tRNA synthetase (PfLysRS), residues 77-583 (enzyme)
chain: not shown
As for B2, the binding result in series [2] is reported as “binds”.
